According to article PMC3182926:

Target: Tri6 (Fusarium graminearum (PH-1; NRRL 31084?), UniProt Q9C1A9 1-218)
Assay: EMSA
Details: protein: recombinant; tags: His (pDEST17; Methods EMSA text says Tri6-HA recombinant protein); label: 32P 5' end

B1: Tri6-3 (dsDNA)
DNA 1: GGCAGGCCTGACAGGAGTGATAAAATGTGAGAAGAG
DNA 2: CTCTTCTCACATTTTATCACTCCTGTCAGGCCTGCC
B1: binds.

B2: Tri6-2 (dsDNA)
DNA 1: CTCAGCAGGATGAACAAGGGGTCTGAAAGGCCTGGC
DNA 2: GCCAGGCCTTTCAGACCCCTTGTTCATCCTGCTGAG
B2: no binding.

B3: Tri6-1 (dsDNA)
DNA 1: GGGTCTGAAAGGCCTGGCAGGCCTGACAGGAGTG
DNA 2: CACTCCTGTCAGGCCTGCCAGGCCTTTCAGACCC
B3: no binding.
